Among the targets are TFAP2A DBD-HSH WT (Homo sapiens, UniProt P05549 203-420); TFAP2B DBD-HSH WT (Homo sapiens, UniProt Q92481 219-457); TFAP2B R236C (Homo sapiens, UniProt Q92481 219-457, R236C); TFAP2A G262E (Homo sapiens, UniProt P05549 203-420, G262E); TFAP2B K276R (Homo sapiens, UniProt Q92481 219-457, K276R); TFAP2B L284S (Homo sapiens, UniProt Q92481 219-457, L284S); TFAP2B R300C (Homo sapiens, UniProt Q92481 219-457, R300C); TFAP2B R285Q (Homo sapiens, UniProt Q92481 219-457, R285Q); TFAP2A R217S (Homo sapiens, UniProt P05549 203-420, R217S); TFAP2B V336I (Homo sapiens, UniProt Q92481 219-457, V336I).

Holding throughout (assay): ITC

Usually Kd stands for a measure of binding affinity in units of concentration. Read a high Kd as lower affinity.

TFAP2B DBD-HSH WT, sequence (Q92481 219-457): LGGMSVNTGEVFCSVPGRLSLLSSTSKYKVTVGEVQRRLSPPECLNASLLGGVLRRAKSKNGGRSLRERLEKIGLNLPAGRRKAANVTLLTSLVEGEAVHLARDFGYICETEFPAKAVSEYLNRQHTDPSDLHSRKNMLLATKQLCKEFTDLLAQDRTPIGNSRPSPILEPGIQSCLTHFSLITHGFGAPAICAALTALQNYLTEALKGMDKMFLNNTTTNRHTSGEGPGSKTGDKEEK
TFAP2A DBD-HSH WT, sequence (P05549 203-420): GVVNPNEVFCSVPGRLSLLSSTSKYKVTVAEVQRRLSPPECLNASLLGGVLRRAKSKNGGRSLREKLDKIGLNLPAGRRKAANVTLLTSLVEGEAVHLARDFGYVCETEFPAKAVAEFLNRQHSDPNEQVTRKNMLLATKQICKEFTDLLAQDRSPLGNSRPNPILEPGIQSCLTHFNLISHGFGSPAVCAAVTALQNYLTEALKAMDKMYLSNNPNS
TFAP2A G262E, sequence (P05549 203-420 G262E): as the sequence (P05549 203-420) above, with G60E counted along it
TFAP2B R300C, sequence (Q92481 219-457 R300C): as the sequence (Q92481 219-457) above, with R82C counted along it
TFAP2B R285Q, sequence (Q92481 219-457 R285Q): as the sequence (Q92481 219-457) above, with R67Q counted along it
TFAP2B R236C, sequence (Q92481 219-457 R236C): as the sequence (Q92481 219-457) above, with R18C counted along it
TFAP2B L284S, sequence (Q92481 219-457 L284S): as the sequence (Q92481 219-457) above, with L66S counted along it
TFAP2B K276R, sequence (Q92481 219-457 K276R): as the sequence (Q92481 219-457) above, with K58R counted along it
TFAP2B V336I, sequence (Q92481 219-457 V336I): as the sequence (Q92481 219-457) above, with V118I counted along it
TFAP2A R217S, sequence (P05549 203-420 R217S): as the sequence (P05549 203-420) above, with R15S counted along it

B1: GCmC/GGC (dsDNA)
DNA 1: GTGCCCGAGGCAG
DNA 2: CTGCCTCGGGCAC
modifications: methylcytosine at position 5 of strand 1; second strand methylation not stated
Turning to B1, the Kd with TFAP2A DBD-HSH WT was 107 ± 3 nM; in the series with TFAP2B DBD-HSH WT, 126 ± 12 nM.

B2: CGA (GCC(N3)GGC) (dsDNA)
DNA 1: GTGCCCGAGGCAG
DNA 2: CTGCCTCGGGCAC
As for B2, the binding result with TFAP2B R236C, with TFAP2B L284S and with TFAP2A R217S was “no binding” in each case. For the same molecule, the Kd stood at 129 ± 22 nM with TFAP2A G262E; 382 ± 36 nM with TFAP2B K276R; 88 ± 20 nM with TFAP2B R300C; 19 ± 1 nM with TFAP2A DBD-HSH WT; 178 ± 43 nM with TFAP2B R285Q; 18 ± 2 nM with TFAP2B DBD-HSH WT. This molecule returned a Kd with TFAP2B V336I of 44 ± 9 nM.

B3: TGA (dsDNA)
DNA 1: GTGCCTGAGGCAG
DNA 2: CTGCCTCAGGCAC
B3: the dissociation constant (Kd) with TFAP2A DBD-HSH WT was 17 ± 1 nM; with TFAP2B DBD-HSH WT it was 19 ± 2 nM.

B4: aCC/GGC (dsDNA)
DNA 1: GTACCCGAGGCAG
DNA 2: CTGCCTCGGGTAC
Regarding B4, the Kd worked out at 373 ± 46 nM in the series with TFAP2A DBD-HSH WT and 313 ± 69 nM in the series with TFAP2B DBD-HSH WT.

B5: cCC/GGC (dsDNA)
DNA 1: GTCCCCGAGGCAG
DNA 2: CTGCCTCGGGGAC
In the case of B5, the Kd was found to be 78 ± 16 nM with TFAP2A DBD-HSH WT and 55 ± 7 nM with TFAP2B DBD-HSH WT.

B6: tCC/GGC (dsDNA)
DNA 1: GTTCCCGAGGCAG
DNA 2: CTGCCTCGGGAAC
Regarding B6, the values for the Kd in the series with TFAP2A DBD-HSH WT and in the series with TFAP2B DBD-HSH WT were 565 ± 87 nM and 248 ± 49 nM, respectively.

B7: N4 (4 bp spacer) (dsDNA)
DNA 1: GTGCCCGATGGCAG
DNA 2: CTGCCATCGGGCAC
As to B7, the dissociation constant (Kd) with TFAP2A DBD-HSH WT was determined as 341 ± 20 nM; with TFAP2B DBD-HSH WT it was 340 ± 17 nM.

B8: cCC/GGg (dsDNA)
DNA 1: GTCCCCGAGGGAG
DNA 2: CTCCCTCGGGGAC
In the case of B8, the dissociation constant Kd worked out at 336 ± 53 nM with TFAP2A DBD-HSH WT and 355 ± 57 nM with TFAP2B DBD-HSH WT.

B9: GmCC/GGC (dsDNA)
DNA 1: GTGCCCGAGGCAG
DNA 2: CTGCCTCGGGCAC
modifications: methylcytosine at position 4 of strand 1; second strand methylation not stated
B9: the Kd with TFAP2A DBD-HSH WT is 347 ± 3 nM; with TFAP2B DBD-HSH WT, 299 ± 22 nM.

B10: GCt/GGC (dsDNA)
DNA 1: GTGCTCGAGGCAG
DNA 2: CTGCCTCGAGCAC
In the case of B10, the equilibrium dissociation constant (Kd) with TFAP2A DBD-HSH WT was 694 ± 71 nM; in the series with TFAP2B DBD-HSH WT, 461 ± 71 nM.
